Tests used:
CD64 (human) [1] = target: CD64 (human) (UniProt P12314); test: cell-based or functional assay
CD64 (human) [2] = target: CD64 (human) (UniProt P12314)
CD64 = CD64 (human, UniProt P12314 16-374); test: cell-based or functional assay

## m22(scFv)2-ETA'
CD64 (human) [1]
  IC50 of growth inhibition (XTT-based colorimetric assay) on HL-60 cells: 0.0117 µg/mL
  IC50 of growth inhibition (XTT-based colorimetric assay) on U937 cells: 0.0135 µg/mL

## moAb m22 (antibody)
CD64 (human) [2]
  % inhibition of m22(scFv)-ETA' binding: 70%

B1: m22(scFv)-ETA' (scFv)
chain 1: QVQLVESGGGVVQPGRSLRLSCSSSGFIFSDNYMYWVRQAPGKGLEWVATISDGGSYTYYPDSVKGRFTISRDNSKNTLFLQMDSLRPEDTGVYFCARGYYRYEGAMDYWGQGTPVTVSS
chain 2: DIQLTQSPSSLSASVGDRVTITCKSSQSVLYSSNQKNYLAWYQQKPGKAPKLLIYWASTRESGVPSRFSGSGSGTDFTFTISSLQPEDIATYYCHQYLSSWTFGQGTKLEIK
CD64
  IC50 of growth inhibition (XTT-based colorimetric assay) on HL-60 cells: 0.0116 µg/mL
  IC50 of growth inhibition (XTT-based colorimetric assay) on U937 cells: 0.0129 µg/mL
